Reference: PMC7747229 (Nature, 2020)
Where “and” joins values, the source holds several entries; their conditions need not be identical. Identical values can stand only once.

Biological target: the molecule itself
Test: cryo-EM structure

B1: KAT1em (KAT1 from Arabidopsis thaliana, amino acids M1-S502) (domain or fragment)
chain: not shown
- stoichiometry N: 8 and 4
